Measured values taken from patent US20260265334A1, “STAPLED PEPTIDES” (THE FLOREY INSTITUTE OF NEUROSCIENCE AND MENTAL HEALTH, priority 2023, published 2026).
Bridge positions count the residues as written; N and C are the ends. Square brackets hold non-standard residues; d marks the D form. Ends that are not written are not given here. Peptide text beside a SMILES is read from it. I, II: the chains in the order shown. αMeF = C[C@](N)(Cc1ccccc1)C(=O)O

What was measured:
[1] = biological target: RXFP3 (relaxin family peptide receptor 3) on CHO-K1-RXFP3 cells (UniProt Q9NSD7); experiment: competition with 5 nM Eu-H3B1-22R on CHO-K1-RXFP3 cells
[2] = biological target: RXFP4 (relaxin family peptide receptor 4) on CHO-K1-RXFP4 cells (UniProt Q8TDU9); experiment: competition with 5 nM Eu-DTPA-R3/I5 on CHO-K1-RXFP4 cells
[3] = biological target: RXFP4 (relaxin family peptide receptor 4) on CHO-K1-RXFP4 cells (UniProt Q8TDU9); experiment: cell-based or functional assay
[4] = biological target: RXFP3 (relaxin family peptide receptor 3) on CHO-K1-RXFP3 cells (UniProt Q9NSD7); experiment: cell-based or functional assay
[5] = biological target: RXFP4-NLuc (nanoluciferase-tagged RXFP4) (UniProt Q8TDU9); experiment: cell-based or functional assay
[6] = biological target: RXFP3-NLuc (human RXFP3 with Nanoluciferase on the C-terminus) (human) (UniProt Q9NSD7); experiment: cell-based or functional assay
RXFP3 [7] = biological target: T1, RXFP3 (Homo sapiens, UniProt Q9NSD7); experiment: Eu-H3B1-22R competition binding assay in CHO-K1-RXFP3 cells; details: 5 nM Eu-H3B1-22R, mean ± SEM (n), Table 2, read-out: Eu-H3B1-22R pKi (converted)
T1 construct: expressed in transfected cells
T1 sequence (Q9NSD7 1-469): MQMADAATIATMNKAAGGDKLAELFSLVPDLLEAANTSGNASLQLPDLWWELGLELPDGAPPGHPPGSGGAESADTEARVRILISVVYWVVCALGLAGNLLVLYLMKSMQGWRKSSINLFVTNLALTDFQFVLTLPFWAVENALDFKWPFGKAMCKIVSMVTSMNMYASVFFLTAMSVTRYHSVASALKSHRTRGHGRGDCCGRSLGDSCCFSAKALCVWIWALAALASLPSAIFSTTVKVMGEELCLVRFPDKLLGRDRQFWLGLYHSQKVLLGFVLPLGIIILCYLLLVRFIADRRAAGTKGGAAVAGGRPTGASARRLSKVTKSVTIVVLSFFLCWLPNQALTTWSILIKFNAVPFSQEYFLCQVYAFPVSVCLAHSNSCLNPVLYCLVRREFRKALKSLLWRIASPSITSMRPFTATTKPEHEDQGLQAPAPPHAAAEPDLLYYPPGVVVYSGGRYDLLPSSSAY
Procedure: An Eu-H3B1-22R competition binding assay was conducted in CHO-K1-RXFP3 cells.
(§1) Competition binding curves for each peptide were performed in triplicate and each experiment was performed independently at least three times. Fluorescent measurements were carried out at excitation of 340 nm and emission of 614 nm on a BMG POLARstar plate reader (BMG Labtech, Melbourne, Australia). Pooled data were presented as mean±S.E.M. of specific binding and are fitted using a one-site binding curve in GraphPad Prism version 8 (GraphPad Inc., San Diego, USA). Statistical analyses were conducted using one-way analysis of variance with uncorrected Fisher's least significant difference (LSD) post-hoc analysis in GraphPad Prism version 9.
(§2) Competition binding and cAMP activity assay were conducted by a procedure analogous to that described above for Example 3. The results are shown in FIG. 24 (RXFP3) and FIG. 25 (RXFP4).

RXFP3 [8] = biological target: T1, RXFP3; experiment: Inhibition of forskolin-induced cAMP activity in CHO-K1-RXFP3 cells (pCRE β-galactosidase reporter); format: cell-based; details: 5 μM forskolin, 6 hours, Table 2, read-out: cAMP pEC50 (converted)
Procedure: Since RXFP3 is coupled to Gi/o proteins, peptides were tested for their ability to activate RXFP3 as measured via their ability to inhibit forskolin-induced cAMP activity in CHO-K1-RXFP3 or CHO-K1-RXFP4 cells transfected with a pCRE (cAMP Response Element) β-galactosidase reporter plasmid (as described in Belgi, A et al., Structure and function relationship of murine insulin-like peptide 5 (INSL5): free C-terminus is essential for RXFP4 receptor binding and activation. Biochemistry 2011, 50 (39), 8352-61; and Haugaard-Kedstrom, L. M et al., Synthesis and pharmacological characterization of a europium-labelled single-chain antagonist for binding studies of the relaxin-3 receptor RXFP3. Amino Acids 2015, 47 (6), 1267-71). For agonist assays, cells were stimulated with forskolin (5 μM for RXFP3, 1 μM for RXFP4)±increasing concentrations of each peptide for 6 hours. Data were expressed as the % forskolin activity, whereby 100% was defined as forskolin alone and 0% as maximum agonist stimulation (1 μM Analogue 2 for RXFP3 and 1 μM Analogue 13 for RXFP4). Data were analysed and plotted using GraphPad Prism 9 and are expressed as the mean±SEM of the pooled data. Statistical analysis was conducted using one-way ANOVA with Uncorrected Fisher's LSD post-hoc analysis using GraphPad Prism 9.
as §2

[9] = In vitro serum stability in human serum at 37° C.; details: serum
RXFP4 [10] = biological target: T2, RXFP4 (Homo sapiens, UniProt Q8TDU9); experiment: Eu-R3/I5 competition binding assay in CHO-K1-RXFP4 cells; design: expressed in transfected cells; details: read-out: Eu-R3/I5 pKi (converted)
Procedure: An Eu-R3/15 competition binding assay in CHO-K1-RXFP4 cells was carried out.
as §1
(§3) An additional analogue of INSL5 was utilised as a control, INSL5-A13, having an A chain (SEQ ID NO: 9) and a B chain (SEQ ID NO: 10) with a first disulfide bond between Cys 1 of the A chain and Cys 7 of the B chain, and a second disulfide bond between Cys 14 of the A chain and Cys 19 of the B chain:
as §2

RXFP4 [11] = biological target: T2, RXFP4; experiment: Inhibition of forskolin-induced cAMP activity in CHO-K1-RXFP4 cells (pCRE β-galactosidase reporter); format: cell-based; design: expressed in transfected cells; details: for EC50: RXFP4, Table 5, read-out: cAMP pEC50 (converted)
Procedure: For agonist assays, cells were stimulated with forskolin (5 μM for RXFP3, 1 μM for RXFP4)±increasing concentrations of each peptide for 6 hours. Data were expressed as the % forskolin activity, whereby 100% was defined as forskolin alone and 0% as maximum agonist stimulation (1 μM Analogue 2 for RXFP3 and 1 μM Analogue 13 for RXFP4). Data were analysed and plotted using GraphPad Prism 9 and are expressed as the mean±SEM of the pooled data. Statistical analysis was conducted using one-way ANOVA with Uncorrected Fisher's LSD post-hoc analysis using GraphPad Prism 9.
as §3, §2

RXFP4 [12] = biological target: T2, RXFP4; experiment: SmBiT-R3/I5 NanoBiT competition binding assay, HEK-LgBiT-RXFP4 membrane fractions; design: expressed in transfected cells; details: RXFP4, 2 nM SmBiT-R3/I5; Table 5; read-out: SmBiT R3/I5 pKi (converted)
Procedure: Furthermore, a SmBiT-R3/15 competition binding assay was performed. All peptides were examined for their binding affinity to RXFP4 utilizing a competition NanoLuc® Binary Technology (NanoBiT™) binding assay. Briefly, HEK-LgBiT-RXFP4 crude membrane fractions (25 μg protein) were incubated with 2 nM SmBiT-R3/15 and increasing concentrations of competing peptides in binding buffer (0.5% BSA, 20 mM HEPES pH 7.5, 1.5 mM CaCl2), 50 mM NaCl) in a total of 100 μL in 96-well Optiplates (PerkinElmer, Waltham MA, USA). After 1 hour of shaking at room temperature, 1.25 μM final concentration of coelenterazine 400a was added, and luminescence measurements were recorded using a MicroBeta Microplate Counter (PerkinElmer, Waltham MA, USA). Each concentration-response curve was tested in triplicate, and each experiment was repeated at least three times with data being expressed as the mean±standard error of the mean (S.E.M) % specific.

[13] = biological target: T3, RXFP3 (relaxin family peptide receptor 3) on CHO-K1-RXFP3 cells (UniProt Q9NSD7 1-469, limits assumed); experiment: cell-based or functional assay
T3 sequence (looked up): T1 sequence (Q9NSD7 1-469)

[14] = biological target: T4, RXFP4 (relaxin family peptide receptor 4) on CHO-K1-RXFP4 cells (UniProt Q8TDU9 1-374, limits assumed); experiment: competition with 5 nM Eu-DTPA-R3/I5 on CHO-K1-RXFP4 cells
T4 construct: whole, on cells; also called INSL5 receptor

[15] = biological target: T5, RXFP3-NLuc (human RXFP3 with Nanoluciferase on the C-terminus) (human, UniProt Q9NSD7 1-469); experiment: cell-based or functional assay
T5 sequence (looked up): T1 sequence (Q9NSD7 1-469)

[16] = biological target: RXFP4-NLuc (nanoluciferase-tagged RXFP4) (UniProt Q8TDU9 1-374); experiment: cell-based or functional assay
[17] = biological target: T4, RXFP4 (relaxin family peptide receptor …); experiment: cell-based or functional assay
[18] = biological target: T3, RXFP3 (relaxin family peptide receptor …); experiment: competition with 5 nM Eu-H3B1-22R on CHO-K1-RXFP3 cells
[19] = biological target: T3, RXFP3 (relaxin family peptide receptor …); experiment: cell-based or functional assay; remark: listed apart in the source
[20] = biological target: T3, RXFP3 (relaxin family peptide receptor …); experiment: competition with Eu-H3B1-22R on CHO-K1-RXFP3 cells
[21] = biological target: T4, RXFP4 (relaxin family peptide receptor …); experiment: competition with Eu-R3/I5 on CHO-K1-RXFP4 cells
[22] = biological target: T6, RXFP3 (relaxin family peptide receptor 3) on CHO-K1-RXFP3 cells, Q9NSD7; experiment: cell-based or functional assay
T6 chain: T1 sequence (Q9NSD7 1-469)

[23] = biological target: T4, RXFP4 (relaxin family peptide receptor …); experiment: cell-based or functional assay; remark: listed apart in the source

T2 sequence (Q8TDU9 whole entry): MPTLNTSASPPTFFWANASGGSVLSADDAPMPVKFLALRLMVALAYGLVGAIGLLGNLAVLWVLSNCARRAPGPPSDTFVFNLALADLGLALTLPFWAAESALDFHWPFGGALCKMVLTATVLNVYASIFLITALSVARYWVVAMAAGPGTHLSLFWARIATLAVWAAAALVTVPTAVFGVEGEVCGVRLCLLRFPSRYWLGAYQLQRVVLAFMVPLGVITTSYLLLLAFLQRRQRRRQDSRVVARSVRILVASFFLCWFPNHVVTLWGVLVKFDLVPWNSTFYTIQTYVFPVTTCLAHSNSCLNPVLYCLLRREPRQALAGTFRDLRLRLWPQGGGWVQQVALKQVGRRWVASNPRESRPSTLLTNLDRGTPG
T4 sequence (Q8TDU9 whole entry): as above
Sequence of RXFP4 (relaxin family peptide receptor 4) on CHO-K1-RXFP4 cells (UniProt Q8TDU9) (Q8TDU9 whole entry): as above
Sequence of RXFP4-NLuc (nanoluciferase-tagged RXFP4) (UniProt Q8TDU9 1-374) (Q8TDU9 whole entry): as above
Sequence of RXFP4-NLuc (nanoluciferase-tagged RXFP4) (UniProt Q8TDU9) (Q8TDU9 whole entry): as above

For “R3/I5 (R3/I5 chimeric relaxin peptide, RXFP3 agonist) (ligand)”, the pKi [1] was 7.77, the pKi [2] was 8.28 and the cAMP pEC50 [3] was 8.98. It also gave a cAMP pEC50 [4] of 8.89, an RXFP4 pEC50 (β-arrestin2 recruitment, NanoBRET AUC) [5] of 7.56 and an RXFP3 pEC50 (β-arrestin2 recruitment, NanoBRET AUC) [6] of 7.91.

In the case of SGREFIRAVIFTSGGSRW-OH [H3B10-27], the Ki (RXFP3 [7]) is reported as > 10000 nM, the EC50 (RXFP3 [8]) is reported as > 10000 nM and the half-life at 400 µg/mL [9] is reported as ~20 min. The Ki (RXFP4 [10]; RXFP4, CHO-K1-RXFP4 cells, 5 nM Eu-R3/I5, Table 3) was > 10000 nM and the “cAMP pEC50” value (RXFP4 [11]; RXFP4, CHO-K1-RXFP4 cells, 1 μM forskolin, 6 hours, Table 3) was “No activity (3)”.

With `CC[C@H](C)[C@H](NC(=O)[C@H](Cc1ccc(O)cc1)NC(=O)[C@@H](NC(=O)[C@@H](NC(=O)[C@](C)(Cc1ccccc1)NC(=O)[C@H](CCCNC(=N)N)NC(=O)[C@@H](NC(=O)[C@H](Cc1ccc(O)cc1)NC(=O)[C@](C)(Cc1ccccc1)NC(=O)[C@H](CC(C)C)NC(=O)CNC(=O)[C@@H](N)CO)[C@@H](C)CC)C(C)C)[C@@H](C)CC)C(=O)N[C@@H](CO)C(=O)NCC(=O)NCC(=O)N[C@@H](CO)C(=O)N[C@@H](CCCNC(=N)N)C(=O)N[C@@H](Cc1c[nH]c2ccccc12)C(=O)O` [aF stapled analogue] (H-SGL[αMeF]YIR[αMeF]VIYISGGSRW-OH) the Ki (RXFP4 [10]; RXFP4, Table 5) was 158 nM, the EC50 (RXFP4 [11]) was 87.1 nM and the Ki (RXFP4 [12]) was 30.9 nM.

In the case of `CC[C@H](C)[C@H](NC(=O)[C@H](Cc1ccc(O)cc1)NC(=O)[C@@H](NC(=O)[C@@H](NC(=O)[C@](C)(Cc1ccccc1)NC(=O)[C@H](CCCNC(=N)N)NC(=O)[C@@H](NC(=O)[C@H](Cc1ccc(O)cc1)NC(=O)[C@](C)(Cc1ccccc1)NC(=O)[C@H](CC(C)C)NC(=O)CNC(=O)[C@@H](N)CO)[C@@H](C)CC)C(C)C)[C@@H](C)CC)C(=O)N[C@@H](CCC(=O)O)C(=O)NCC(=O)NCC(=O)N[C@@H](CO)C(=O)N[C@@H](CCCNC(=N)N)C(=O)N[C@@H](Cc1c[nH]c2ccccc12)C(=O)O` [πI5B7-24-GG-S19E] (H-SGL[αMeF]YIR[αMeF]VIYIEGGSRW-OH; N-terminus and C-terminus assumed), the EC50 (RXFP4 [11]) is reported as 40.7 nM and the Ki (RXFP4 [12]) is reported as 7.41 nM.

B1: H3B10-27(13/17αF) (peptide)
peptide: SGR[αMeF]FIR[αMeF]VIFTSGGSRW
notes: 18-residue single-chain RXFP3 agonist, non-covalently stapled; also called πH3B; target peptide
In the case of B1, the “cAMP pEC50” value [13] is reported as 8.16, the pKi [14] is reported as 6.81 and the “RXFP3 pEC50 (β-arrestin2 recruitment, NanoBRET AUC)” value [15] is reported as 7.19. The “RXFP4 pEC50 (β-arrestin2 recruitment, NanoBRET AUC)” value [16] was 5.57, the “cAMP pEC50” value [17] was 7.26 and the pKi [18] was 6.83.

B2: Human insulin-like peptide 7 (INSL7), also known as human relaxin-3 (H3 relaxin) (ligand)
chain 1: DVLAGLSSSCCKWGCSKSEISSLC
chain 2: RAAPYGVRLCGREFIRAVIFTCGGSRW
modifications: disulfide I:10-I:15; not fully specified; cysteine pairing not given here
For B2, the pKi [14] was 8.42 and the “cAMP pEC50” value [17] was 8.94.

B3: H3B1-22R (Formula XI, known single chain antagonist of RXFP3) (peptide)
peptide: RAAPYGVRLSGREFIRAVIFTSR
notes: 23 residues
With B3 the “RXFP3 Antagonist potency pIC50” value [19] was 6.25, the pKi [20] was 7.64 and the binding result [21] was “no binding”.

B4: H3B10-27(13/17F) (peptide)
peptide: SGRFFIRFVIFTSGGSRW
modifications: not checked
In the case of B4, the cAMP pEC50 [22] is reported as < 5.

B5: H3B10-22R13/17αF (Formula X, RXFP3 antagonist) (peptide)
peptide: SGR[αMeF]FIR[αMeF]VIFTSR
notes: 14 residues
With B5 the “RXFP3 Antagonist potency pIC50” value [19] was 6.98, the “RXFP4 cAMP pEC50” value [23] was < 5 and the pKi [20] was 7.6. B5: no binding [21].

B6: H3B10-27 (native B10-27) (peptide)
peptide: SGREFIRAVIFTSGGSRW
With B6 the “cAMP pEC50” value [13] was < 5.
